{"source": "paper doi:10.64898/2025.12.13.693833", "about": "(bioRxiv, 2025)", "key": {"[1]": {"molecular_target": "PP2A Aα subunit (human) (UniProt P30153)", "sequence (P30153 whole entry)": "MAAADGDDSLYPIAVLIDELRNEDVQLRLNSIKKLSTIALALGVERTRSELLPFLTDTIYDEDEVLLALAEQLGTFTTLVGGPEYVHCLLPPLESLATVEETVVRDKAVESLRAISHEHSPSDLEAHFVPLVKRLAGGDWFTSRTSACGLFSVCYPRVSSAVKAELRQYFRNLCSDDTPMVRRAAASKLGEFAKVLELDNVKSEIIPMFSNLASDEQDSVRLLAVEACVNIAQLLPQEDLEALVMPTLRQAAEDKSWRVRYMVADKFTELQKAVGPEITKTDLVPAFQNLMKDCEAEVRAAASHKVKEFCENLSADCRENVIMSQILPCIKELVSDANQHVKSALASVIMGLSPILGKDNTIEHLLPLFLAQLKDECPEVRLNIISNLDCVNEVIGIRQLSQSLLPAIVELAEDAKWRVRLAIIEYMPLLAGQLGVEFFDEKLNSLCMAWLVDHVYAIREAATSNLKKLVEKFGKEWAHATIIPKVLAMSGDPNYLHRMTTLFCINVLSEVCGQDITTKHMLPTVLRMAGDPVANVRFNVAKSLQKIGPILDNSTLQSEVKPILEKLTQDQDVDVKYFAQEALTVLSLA", "assay": "MST"}, "[2]": {"molecular_target": "T1, PP2A Cα subunit (human, UniProt P67775 2-309)", "T1 sequence (P67775 2-309)": "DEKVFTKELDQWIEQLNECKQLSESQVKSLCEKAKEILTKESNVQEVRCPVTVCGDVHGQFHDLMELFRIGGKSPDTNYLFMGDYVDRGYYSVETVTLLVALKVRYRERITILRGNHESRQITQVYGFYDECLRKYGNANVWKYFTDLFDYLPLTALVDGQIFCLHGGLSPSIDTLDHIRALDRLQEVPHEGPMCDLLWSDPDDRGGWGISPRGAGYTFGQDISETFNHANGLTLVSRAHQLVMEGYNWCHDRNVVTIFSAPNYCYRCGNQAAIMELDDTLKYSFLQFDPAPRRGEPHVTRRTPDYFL", "assay": "BLI"}, "[3]": {"molecular_target": "T2, PP2A(B55α) holoenzyme (human, UniProt P30153 1-589; P63151 1-447; P67775 2-309)", "T2 sequence (P30153 whole entry, chain 1 of 3)": "as the sequence (P30153 whole entry) above", "T2 sequence (P63151 whole entry, chain 2 of 3)": "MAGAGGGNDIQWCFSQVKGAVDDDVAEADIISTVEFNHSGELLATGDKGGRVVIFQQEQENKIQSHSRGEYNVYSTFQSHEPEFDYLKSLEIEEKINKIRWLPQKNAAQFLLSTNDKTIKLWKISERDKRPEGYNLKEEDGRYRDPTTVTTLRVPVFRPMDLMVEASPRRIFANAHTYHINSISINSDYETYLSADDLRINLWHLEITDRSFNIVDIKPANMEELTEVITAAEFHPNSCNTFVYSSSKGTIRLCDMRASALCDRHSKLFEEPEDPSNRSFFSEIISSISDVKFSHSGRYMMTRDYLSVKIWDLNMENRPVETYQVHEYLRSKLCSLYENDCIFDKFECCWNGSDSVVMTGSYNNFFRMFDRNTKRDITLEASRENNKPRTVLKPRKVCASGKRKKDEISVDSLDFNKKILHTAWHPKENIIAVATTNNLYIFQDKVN", "T2 sequence (P67775 2-309, chain 3 of 3)": "as the sequence (P67775 2-309) above", "assay": "BLI"}, "[4]": {"molecular_target": "T2, PP2A(B55α) holoenzyme", "assay": "BLI", "remark": "listed apart in the source"}, "[5]": {"molecular_target": "T1, PP2A Cα subunit", "assay": "cryo-EM structure"}}, "data": [{"molecule": "tag-free ENSA^S67D (from UniProt O43768 1-121) (natural protein)", "values": [{"measurement": "Kd", "setting": "[1]", "result": 800, "unit": "µM"}]}, {"molecule": "tag-free ENSA^WT (from UniProt O43768 1-121) (natural protein)", "values": [{"measurement": "Kd", "setting": "[1]", "result": 600, "unit": "µM"}]}, {"molecule": "GST-ENSA^S67D-His6 (natural protein, human, UniProt O43768 1-121, looked up) MSQKQEEENPAEETGEEKQDTQEKEGILPERAEEAKLKAKYPSLGQKPGGSDFLMKRLQKGQKYFDDGDYNMAKAKMKNKQLPSAGPDKNLVTGDHIPTPQDLPQRKSSLVTSKLAGGQVE", "values": [{"measurement": "binding result", "setting": "[2]", "result": "binds"}, {"measurement": "Kd", "setting": "[3]", "result": 0.66, "unit": "µM"}]}, {"molecule": "GST-ENSA^S67D K40A-His6 (natural protein, human, UniProt O43768 1-121, looked up) MSQKQEEENPAEETGEEKQDTQEKEGILPERAEEAKLKAAYPSLGQKPGGSDFLMKRLQKGQKYFDDGDYNMAKAKMKNKQLPSAGPDKNLVTGDHIPTPQDLPQRKSSLVTSKLAGGQVE", "values": [{"measurement": "binding result", "setting": "[4]", "result": "binds"}]}, {"molecule": "GST-ENSA^S67D E30A-His6 (natural protein, human, UniProt O43768 1-121, looked up) MSQKQEEENPAEETGEEKQDTQEKEGILPARAEEAKLKAKYPSLGQKPGGSDFLMKRLQKGQKYFDDGDYNMAKAKMKNKQLPSAGPDKNLVTGDHIPTPQDLPQRKSSLVTSKLAGGQVE", "values": [{"measurement": "binding result", "setting": "[4]", "result": "binds"}]}, {"molecule": "His6-TEV site-ENSA^S67D (natural protein, human, UniProt O43768 1-121, looked up) MSQKQEEENPAEETGEEKQDTQEKEGILPERAEEAKLKAKYPSLGQKPGGSDFLMKRLQKGQKYFDDGDYNMAKAKMKNKQLPSAGPDKNLVTGDHIPTPQDLPQRKSSLVTSKLAGGQVE", "values": [{"measurement": "binding result", "setting": "[5]", "result": "binds"}]}, {"molecule": "GST-ENSA^WT-His6 (natural protein, human, UniProt O43768 1-121, looked up) MSQKQEEENPAEETGEEKQDTQEKEGILPERAEEAKLKAKYPSLGQKPGGSDFLMKRLQKGQKYFDSGDYNMAKAKMKNKQLPSAGPDKNLVTGDHIPTPQDLPQRKSSLVTSKLAGGQVE", "values": [{"measurement": "Kd", "setting": "[3]", "result": 1.45, "unit": "µM"}]}, {"molecule": "GST-ENSA^S67D R57A-His6 (natural protein, human, UniProt O43768 1-121, looked up) MSQKQEEENPAEETGEEKQDTQEKEGILPERAEEAKLKAKYPSLGQKPGGSDFLMKALQKGQKYFDDGDYNMAKAKMKNKQLPSAGPDKNLVTGDHIPTPQDLPQRKSSLVTSKLAGGQVE", "values": [{"measurement": "binding result", "setting": "[4]", "result": "binds"}]}]}
